Drawing on paper PMC5653232, this text covers Kd for one substance.

As usually defined, the Kd is the equilibrium constant for the complex coming apart. Lower therefore signals higher affinity.

For the experiment, the target named is H3K9Cme3-NCP (fluorescein-labelled DNA, unlabelled wild type H2A) (human) (UniProt P0C0S8). Put plainly: fluorescence polarisation.

Chain of CHD3 PHD1/2 (373–508) (Q12873 373-508): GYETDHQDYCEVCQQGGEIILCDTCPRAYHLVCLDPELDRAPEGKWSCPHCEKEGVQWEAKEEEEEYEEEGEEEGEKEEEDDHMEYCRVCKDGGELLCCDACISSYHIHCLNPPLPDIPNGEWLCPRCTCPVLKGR

“CHD3 PHD1/2 (373–508) (from UniProt Q12873 373-508) (domain or fragment)” came in with a dissociation constant (Kd) of 1400 nM. This lies in the single-digit micromolar range.
